Data published in patent publication US20110044980A1 (AbbVie / Abbott, published 2011).

T1: NKG2D (human, UniProt P26718 1-216)
T1 construct: whole, on cells; also called NKGD
T1 sequence (looked up): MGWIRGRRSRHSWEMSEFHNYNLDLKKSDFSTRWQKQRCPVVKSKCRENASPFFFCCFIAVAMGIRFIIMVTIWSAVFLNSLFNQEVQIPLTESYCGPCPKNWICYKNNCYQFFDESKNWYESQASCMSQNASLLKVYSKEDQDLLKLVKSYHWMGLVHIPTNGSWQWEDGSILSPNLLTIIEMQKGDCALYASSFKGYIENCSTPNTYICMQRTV

B1: AB121 (antibody, V domains shown)
VH: QVQLVESGGGLVKPGGSLRLSCAASGFTFSSYGMHWVRQAPGKGLEWVAFIRYDGSNKYYADSVKGRFTISRDNSKNTLYLQMNSLRAEDTAVYYCAKDRGLGDGTYFDYWGQGTTVTVSS
VL: QSALTQPASVSGSPGQSITISCSGSSSNIGNNAVNWYQQLPGKAPKLLIYYDDLLPSGVSDRFSGSKSGTSAFLAISGLQSEDEADYYCAAWDDSLNGPVFGGGTKLTVLG
notes: also called NKGD (KYK-2.0); anti-NKG2D parent antibody
B2: DVD1055 (bispecific antibody)
VH: QVQLQQSGAELVRPGSSVKISCKASGYAFSSYWMNWVKQRPGQGLEWIGQIWPGDGDTNYNGKFKGKATLTADESSSTAYMQLSSLASEDSAVYFCARRETTTVGRYYYAMDYWGQGTSVTVSSASTKGPSVFPLAPQVQLVESGGGLVKPGGSLRLSCAASGFTFSSYGMHWVRQAPGKGLEWVAFIRYDGSNKYYADSVKGRFTISRDNSKNTLYLQMNSLRAEDTAVYYCAKDRGLGDGTYFDYWGQGTTVTVSS
VL: DILLTQTPASLAVSLGQRATISCKASQSVDYDGDSYLNWYQQIPGQPPKLLIYDASNLVSGIPPRFSGSGSGTDFTLNIHPVEKVDAATYHCQQSTEDPWTFGGGTKLEIKRTVAAPSVFIFPPQSALTQPASVSGSPGQSITISCSGSSSNIGNNAVNWYQQLPGKAPKLLIYYDDLLPSGVSDRFSGSKSGTSAFLAISGLQSEDEADYYCAAWDDSLNGPVFGGGTKLTVLG
notes: DVD-Ig; dual variable domains only; Outer AB006, inner AB121; also called DVD1055H + DVD1055L
B3: DVD1214 (bispecific antibody)
VH: QVQLVESGGGLVKPGGSLRLSCAASGFTFSSYGMHWVRQAPGKGLEWVAFIRYDGSNKYYADSVKGRFTISRDNSKNTLYLQMNSLRAEDTAVYYCAKDRGLGDGTYFDYWGQGTTVTVSSASTKGPSVFPLAPQVQLQESGPGLVKPSQTLSLTCTVSGYSISSDFAWNWIRQPPGKGLEWMGYISYSGNTRYQPSLKSRITISRDTSKNQFFLKLNSVTAADTATYYCVTAGRGFPYWGQGTLVTVSS
VL: QSALTQPASVSGSPGQSITISCSGSSSNIGNNAVNWYQQLPGKAPKLLIYYDDLLPSGVSDRFSGSKSGTSAFLAISGLQSEDEADYYCAAWDDSLNGPVFGGGTKLTVLGQPKAAPSVTLFPPDIQMTQSPSSMSVSVGDRVTITCHSSQDINSNIGWLQQKPGKSFKGLIYHGTNLDDGVPSRFSGSGSGTDYTLTISSLQPEDFATYYCVQYAQFPWTFGGGTKLEIKR
notes: DVD-Ig; dual variable domains only; Outer AB121, inner AB064; also called DVD1214H + DVD1214L
B4: DVD1215 (bispecific antibody)
VH: QVQLQESGPGLVKPSQTLSLTCTVSGYSISSDFAWNWIRQPPGKGLEWMGYISYSGNTRYQPSLKSRITISRDTSKNQFFLKLNSVTAADTATYYCVTAGRGFPYWGQGTLVTVSSASTKGPSVFPLAPQVQLVESGGGLVKPGGSLRLSCAASGFTFSSYGMHWVRQAPGKGLEWVAFIRYDGSNKYYADSVKGRFTISRDNSKNTLYLQMNSLRAEDTAVYYCAKDRGLGDGTYFDYWGQGTTVTVSS
VL: DIQMTQSPSSMSVSVGDRVTITCHSSQDINSNIGWLQQKPGKSFKGLIYHGTNLDDGVPSRFSGSGSGTDYTLTISSLQPEDFATYYCVQYAQFPWTFGGGTKLEIKRTVAAPSVFIFPPQSALTQPASVSGSPGQSITISCSGSSSNIGNNAVNWYQQLPGKAPKLLIYYDDLLPSGVSDRFSGSKSGTSAFLAISGLQSEDEADYYCAAWDDSLNGPVFGGGTKLTVLG
notes: DVD-Ig; dual variable domains only; Outer AB064, inner AB121; also called DVD1215H + DVD1215L
B5: DVD1052 (bispecific antibody)
VH: QVQLVESGGGLVKPGGSLRLSCAASGFTFSSYGMHWVRQAPGKGLEWVAFIRYDGSNKYYADSVKGRFTISRDNSKNTLYLQMNSLRAEDTAVYYCAKDRGLGDGTYFDYWGQGTTVTVSSASTKGPSVFPLAPQVQLQQPGAELVKPGASVKMSCKASGYTFTSYNMHWVKQTPGRGLEWIGAIYPGNGDTSYNQKFKGKATLTADKSSSTAYMQLSSLTSEDSAVYYCARSTYYGGDWYFNVWGAGTTVTVSA
VL: QSALTQPASVSGSPGQSITISCSGSSSNIGNNAVNWYQQLPGKAPKLLIYYDDLLPSGVSDRFSGSKSGTSAFLAISGLQSEDEADYYCAAWDDSLNGPVFGGGTKLTVLGQPKAAPSVTLFPPQIVLSQSPAILSPSPGEKVTMTCRASSSVSYIHWFQQKPGSSPKPWIYATSNLASGVPVRFSGSGSGTSYSLTISRVEAEDAATYYCQQWTSNPPTFGGGTKLEIKR
notes: DVD-Ig; the entries are the dual variable domains (outer VD - linker - inner VD) without constant domains; Outer AB121, inner AB001; also called NKG2D / CD-20 DVD-Ig; DVD1052H + DVD1052L
B6: DVD1053 (bispecific antibody)
VH: QVQLQQPGAELVKPGASVKMSCKASGYTFTSYNMHWVKQTPGRGLEWIGAIYPGNGDTSYNQKFKGKATLTADKSSSTAYMQLSSLTSEDSAVYYCARSTYYGGDWYFNVWGAGTTVTVSAASTKGPSVFPLAPQVQLVESGGGLVKPGGSLRLSCAASGFTFSSYGMHWVRQAPGKGLEWVAFIRYDGSNKYYADSVKGRFTISRDNSKNTLYLQMNSLRAEDTAVYYCAKDRGLGDGTYFDYWGQGTTVTVSS
VL: QIVLSQSPAILSPSPGEKVTMTCRASSSVSYIHWFQQKPGSSPKPWIYATSNLASGVPVRFSGSGSGTSYSLTISRVEAEDAATYYCQQWTSNPPTFGGGTKLEIKRTVAAPSVFIFPPQSALTQPASVSGSPGQSITISCSGSSSNIGNNAVNWYQQLPGKAPKLLIYYDDLLPSGVSDRFSGSKSGTSAFLAISGLQSEDEADYYCAAWDDSLNGPVFGGGTKLTVLG
notes: DVD-Ig; dual variable domains only; Outer AB001, inner AB121; also called CD-20 / NKG2D DVD-Ig; DVD1053H + DVD1053L
B7: DVD1054 (bispecific antibody)
VH: QVQLVESGGGLVKPGGSLRLSCAASGFTFSSYGMHWVRQAPGKGLEWVAFIRYDGSNKYYADSVKGRFTISRDNSKNTLYLQMNSLRAEDTAVYYCAKDRGLGDGTYFDYWGQGTTVTVSSASTKGPSVFPLAPQVQLQQSGAELVRPGSSVKISCKASGYAFSSYWMNWVKQRPGQGLEWIGQIWPGDGDTNYNGKFKGKATLTADESSSTAYMQLSSLASEDSAVYFCARRETTTVGRYYYAMDYWGQGTSVTVSS
VL: QSALTQPASVSGSPGQSITISCSGSSSNIGNNAVNWYQQLPGKAPKLLIYYDDLLPSGVSDRFSGSKSGTSAFLAISGLQSEDEADYYCAAWDDSLNGPVFGGGTKLTVLGQPKAAPSVTLFPPDILLTQTPASLAVSLGQRATISCKASQSVDYDGDSYLNWYQQIPGQPPKLLIYDASNLVSGIPPRFSGSGSGTDFTLNIHPVEKVDAATYHCQQSTEDPWTFGGGTKLEIKR
notes: DVD-Ig; dual variable domains only; Outer AB121, inner AB006; also called DVD1054H + DVD1054L

Legend:
NKG2D [1] = biological target: T1, NKG2D; assay: flow cytometry (FACSCanto), cells carrying the target (line not given), 2 ug/mL
NKG2D [2] = biological target: T1, NKG2D; assay: flow cytometry (FACSCalibur), activated NK cells, 10 ug/ml, R-PE GMFI on CD56+ live cells

Binder | FACS Geometric Mean C-terminal (NKG2D [2]) | FACS Geometric Mean N-terminal (NKG2D [2]) | further results
B1 | – | – | FACS Geometric Mean (NKG2D [1]): 284; FACS Geometric Mean (NKG2D [2]): 31.1
B2 | 21.2 | – | –
B3 | – | 33.8 | –
B4 | 31.7 | – | –
B5 | – | 36.4 | –
B6 | 31.7 | – | –
B7 | – | 28.3 | –
